T1: TNFR1 (Homo sapiens, UniProt P19438)
T1 chain: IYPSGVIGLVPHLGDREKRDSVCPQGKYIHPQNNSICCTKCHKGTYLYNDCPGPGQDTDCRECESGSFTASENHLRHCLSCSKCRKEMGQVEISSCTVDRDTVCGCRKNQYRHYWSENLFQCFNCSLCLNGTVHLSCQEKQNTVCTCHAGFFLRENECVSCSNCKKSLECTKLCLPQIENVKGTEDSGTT


Target: T1, TNFR1
Assay: yeast display SC50

Row | apparent Kd (screen) [nM] | Binder
1 | 0.49 | E5Q (designed binder) MTLQQLLREEALRRAEAEAFRYALELLAEKFPEQKEYLLDLAEEIESQIRSLSGVDVEDVRKFLDKEWAWVKELLAEHPAELAEVEAARAARLAELRAEVEAKVAA
2 | 0.446 | K35Y (designed binder) MTLQELLREEALRRAEAEAFRYALELLAEKFPEQYEYLLDLAEEIESQIRSLSGVDVEDVRKFLDKEWAWVKELLAEHPAELAEVEAARAARLAELRAEVEAKVAA
3 | 0.653 | E58C (designed binder) MTLQELLREEALRRAEAEAFRYALELLAEKFPEQKEYLLDLAEEIESQIRSLSGVDVCDVRKFLDKEWAWVKELLAEHPAELAEVEAARAARLAELRAEVEAKVAA
4 | 7.07 | L7F (designed binder) MTLQELFREEALRRAEAEAFRYALELLAEKFPEQKEYLLDLAEEIESQIRSLSGVDVEDVRKFLDKEWAWVKELLAEHPAELAEVEAARAARLAELRAEVEAKVAA
5 | 9.41 | E44T (designed binder) MTLQELLREEALRRAEAEAFRYALELLAEKFPEQKEYLLDLAETIESQIRSLSGVDVEDVRKFLDKEWAWVKELLAEHPAELAEVEAARAARLAELRAEVEAKVAA
6 | 2.73 | I49A (designed binder) MTLQELLREEALRRAEAEAFRYALELLAEKFPEQKEYLLDLAEEIESQARSLSGVDVEDVRKFLDKEWAWVKELLAEHPAELAEVEAARAARLAELRAEVEAKVAA
7 | 1.54 | L82S (designed binder) MTLQELLREEALRRAEAEAFRYALELLAEKFPEQKEYLLDLAEEIESQIRSLSGVDVEDVRKFLDKEWAWVKELLAEHPAESAEVEAARAARLAELRAEVEAKVAA
8 | 5.31 | L64R (designed binder) MTLQELLREEALRRAEAEAFRYALELLAEKFPEQKEYLLDLAEEIESQIRSLSGVDVEDVRKFRDKEWAWVKELLAEHPAELAEVEAARAARLAELRAEVEAKVAA
9 | 1.05 | K30A (designed binder) MTLQELLREEALRRAEAEAFRYALELLAEAFPEQKEYLLDLAEEIESQIRSLSGVDVEDVRKFLDKEWAWVKELLAEHPAELAEVEAARAARLAELRAEVEAKVAA
10 | 0.539 | E58Y (designed binder) MTLQELLREEALRRAEAEAFRYALELLAEKFPEQKEYLLDLAEEIESQIRSLSGVDVYDVRKFLDKEWAWVKELLAEHPAELAEVEAARAARLAELRAEVEAKVAA
11 | 0.539 | A88K (designed binder) MTLQELLREEALRRAEAEAFRYALELLAEKFPEQKEYLLDLAEEIESQIRSLSGVDVEDVRKFLDKEWAWVKELLAEHPAELAEVEAKRAARLAELRAEVEAKVAA
12 | 0.539 | E36Y (designed binder) MTLQELLREEALRRAEAEAFRYALELLAEKFPEQKYYLLDLAEEIESQIRSLSGVDVEDVRKFLDKEWAWVKELLAEHPAELAEVEAARAARLAELRAEVEAKVAA
13 | 0.539 | E81T (designed binder) MTLQELLREEALRRAEAEAFRYALELLAEKFPEQKEYLLDLAEEIESQIRSLSGVDVEDVRKFLDKEWAWVKELLAEHPATLAEVEAARAARLAELRAEVEAKVAA
14 | 12.5 | L38A (designed binder) MTLQELLREEALRRAEAEAFRYALELLAEKFPEQKEYALDLAEEIESQIRSLSGVDVEDVRKFLDKEWAWVKELLAEHPAELAEVEAARAARLAELRAEVEAKVAA
15 | 0.593 | A15I (designed binder) MTLQELLREEALRRIEAEAFRYALELLAEKFPEQKEYLLDLAEEIESQIRSLSGVDVEDVRKFLDKEWAWVKELLAEHPAELAEVEAARAARLAELRAEVEAKVAA
16 | 2.25 | L41E (designed binder) MTLQELLREEALRRAEAEAFRYALELLAEKFPEQKEYLLDEAEEIESQIRSLSGVDVEDVRKFLDKEWAWVKELLAEHPAELAEVEAARAARLAELRAEVEAKVAA
17 | 2.05 | A88P (designed binder) MTLQELLREEALRRAEAEAFRYALELLAEKFPEQKEYLLDLAEEIESQIRSLSGVDVEDVRKFLDKEWAWVKELLAEHPAELAEVEAPRAARLAELRAEVEAKVAA
18 | 0.79 | L7D (designed binder) MTLQELDREEALRRAEAEAFRYALELLAEKFPEQKEYLLDLAEEIESQIRSLSGVDVEDVRKFLDKEWAWVKELLAEHPAELAEVEAARAARLAELRAEVEAKVAA

Row | apparent Kd (screen) [nM] | Binder
19 | 0.653 | E43F (designed binder) MTLQELLREEALRRAEAEAFRYALELLAEKFPEQKEYLLDLAFEIESQIRSLSGVDVEDVRKFLDKEWAWVKELLAEHPAELAEVEAARAARLAELRAEVEAKVAA
20 | 2.73 | L74I (designed binder) MTLQELLREEALRRAEAEAFRYALELLAEKFPEQKEYLLDLAEEIESQIRSLSGVDVEDVRKFLDKEWAWVKEILAEHPAELAEVEAARAARLAELRAEVEAKVAA
21 | 0.593 | A15W (designed binder) MTLQELLREEALRRWEAEAFRYALELLAEKFPEQKEYLLDLAEEIESQIRSLSGVDVEDVRKFLDKEWAWVKELLAEHPAELAEVEAARAARLAELRAEVEAKVAA
22 | 1.16 | T2G (designed binder) MGLQELLREEALRRAEAEAFRYALELLAEKFPEQKEYLLDLAEEIESQIRSLSGVDVEDVRKFLDKEWAWVKELLAEHPAELAEVEAARAARLAELRAEVEAKVAA
23 | 0.49 | K103N (designed binder) MTLQELLREEALRRAEAEAFRYALELLAEKFPEQKEYLLDLAEEIESQIRSLSGVDVEDVRKFLDKEWAWVKELLAEHPAELAEVEAARAARLAELRAEVEANVAA
24 | 0.49 | F20H (designed binder) MTLQELLREEALRRAEAEAHRYALELLAEKFPEQKEYLLDLAEEIESQIRSLSGVDVEDVRKFLDKEWAWVKELLAEHPAELAEVEAARAARLAELRAEVEAKVAA
25 | 0.539 | E81K (designed binder) MTLQELLREEALRRAEAEAFRYALELLAEKFPEQKEYLLDLAEEIESQIRSLSGVDVEDVRKFLDKEWAWVKELLAEHPAKLAEVEAARAARLAELRAEVEAKVAA
26 | 24.4 | L52E (designed binder) MTLQELLREEALRRAEAEAFRYALELLAEKFPEQKEYLLDLAEEIESQIRSESGVDVEDVRKFLDKEWAWVKELLAEHPAELAEVEAARAARLAELRAEVEAKVAA
27 | 11.4 | A42Y (designed binder) MTLQELLREEALRRAEAEAFRYALELLAEKFPEQKEYLLDLYEEIESQIRSLSGVDVEDVRKFLDKEWAWVKELLAEHPAELAEVEAARAARLAELRAEVEAKVAA
28 | 0.718 | L96M (designed binder) MTLQELLREEALRRAEAEAFRYALELLAEKFPEQKEYLLDLAEEIESQIRSLSGVDVEDVRKFLDKEWAWVKELLAEHPAELAEVEAARAARLAEMRAEVEAKVAA
29 | 0.869 | F63G (designed binder) MTLQELLREEALRRAEAEAFRYALELLAEKFPEQKEYLLDLAEEIESQIRSLSGVDVEDVRKGLDKEWAWVKELLAEHPAELAEVEAARAARLAELRAEVEAKVAA
30 | 1.16 | L12S (designed binder) MTLQELLREEASRRAEAEAFRYALELLAEKFPEQKEYLLDLAEEIESQIRSLSGVDVEDVRKFLDKEWAWVKELLAEHPAELAEVEAARAARLAELRAEVEAKVAA
31 | 0.718 | E99N (designed binder) MTLQELLREEALRRAEAEAFRYALELLAEKFPEQKEYLLDLAEEIESQIRSLSGVDVEDVRKFLDKEWAWVKELLAEHPAELAEVEAARAARLAELRANVEAKVAA
32 | 2.48 | F63P (designed binder) MTLQELLREEALRRAEAEAFRYALELLAEKFPEQKEYLLDLAEEIESQIRSLSGVDVEDVRKPLDKEWAWVKELLAEHPAELAEVEAARAARLAELRAEVEAKVAA
33 | 1.54 | I45D (designed binder) MTLQELLREEALRRAEAEAFRYALELLAEKFPEQKEYLLDLAEEDESQIRSLSGVDVEDVRKFLDKEWAWVKELLAEHPAELAEVEAARAARLAELRAEVEAKVAA
34 | 0.718 | E5Y (designed binder) MTLQYLLREEALRRAEAEAFRYALELLAEKFPEQKEYLLDLAEEIESQIRSLSGVDVEDVRKFLDKEWAWVKELLAEHPAELAEVEAARAARLAELRAEVEAKVAA
35 | 0.869 | E84N (designed binder) MTLQELLREEALRRAEAEAFRYALELLAEKFPEQKEYLLDLAEEIESQIRSLSGVDVEDVRKFLDKEWAWVKELLAEHPAELANVEAARAARLAELRAEVEAKVAA

— paper PMC12416549 (2024)
